Target: T1, Mouse His6-p110β(1-1064) (mouse, UniProt Q8BTI9 1-1064)
T1 construct: p110β catalytic subunit of class IA PI3K, mouse, residues 1-1064 (full length); N-terminal extension from pFastBac-HTb printed as [residues removed]; (His6 tag and TEV site); this molecule is used there; also called full-length mouse p110β; p110β catalytic subunit; source: Sf9 cells, recombinant baculoviruses, coinfected with the regulatory subunit; complex purified (HisTrap, Q-Sepharose, …)
Experiment: crystal structure; mouse His6-p110β(1-1064)/p85β-icSH2(423-722) complex at 4 mg/ml with 20 mM sodium phenyl phosphate and 150 μM GDC0941; 12% PEG 3350, 0.1 M potassium citrate pH 6, 0.4 M lithium sulfate, 22°C; 3.3 Å; one 1:1 complex in the asymmetric unit
Conditions: both partners purified

T1 sequence (Q8BTI9 whole entry, the tested form may be a part): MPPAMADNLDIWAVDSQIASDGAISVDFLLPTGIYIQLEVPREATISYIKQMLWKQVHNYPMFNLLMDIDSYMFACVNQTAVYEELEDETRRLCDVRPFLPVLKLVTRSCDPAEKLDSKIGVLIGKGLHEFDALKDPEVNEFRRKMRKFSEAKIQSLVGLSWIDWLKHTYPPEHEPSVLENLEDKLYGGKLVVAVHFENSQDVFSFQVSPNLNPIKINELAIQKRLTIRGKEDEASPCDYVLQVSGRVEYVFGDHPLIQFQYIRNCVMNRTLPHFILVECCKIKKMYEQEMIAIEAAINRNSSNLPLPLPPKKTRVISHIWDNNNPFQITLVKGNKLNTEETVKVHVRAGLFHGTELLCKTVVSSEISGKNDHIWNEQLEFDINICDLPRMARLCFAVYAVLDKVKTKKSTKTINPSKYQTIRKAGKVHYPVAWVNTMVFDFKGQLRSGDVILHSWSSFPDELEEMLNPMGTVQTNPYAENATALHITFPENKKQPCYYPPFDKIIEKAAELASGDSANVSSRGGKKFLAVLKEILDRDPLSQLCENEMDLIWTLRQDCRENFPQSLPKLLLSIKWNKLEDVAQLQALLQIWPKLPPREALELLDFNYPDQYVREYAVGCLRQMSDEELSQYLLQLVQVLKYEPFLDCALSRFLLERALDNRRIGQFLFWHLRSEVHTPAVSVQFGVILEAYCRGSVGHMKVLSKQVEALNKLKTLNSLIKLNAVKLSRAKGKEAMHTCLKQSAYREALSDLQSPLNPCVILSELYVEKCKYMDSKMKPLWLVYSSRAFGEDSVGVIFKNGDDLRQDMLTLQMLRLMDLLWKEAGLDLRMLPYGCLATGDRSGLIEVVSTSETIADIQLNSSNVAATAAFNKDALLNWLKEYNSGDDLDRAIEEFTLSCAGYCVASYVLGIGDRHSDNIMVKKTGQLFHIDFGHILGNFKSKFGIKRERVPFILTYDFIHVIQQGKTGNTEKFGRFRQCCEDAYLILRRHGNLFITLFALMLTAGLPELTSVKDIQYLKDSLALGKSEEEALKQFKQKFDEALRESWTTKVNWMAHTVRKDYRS

B1: mouse p85β-icSH2 (residues 423–722) (domain or fragment, UniProt O08908 423-722, looked up)
chain: QQDQVVKEDSIEAVGAQLKVYHQQYQDKSREYDQLYEEYTRTSQELQMKRTAIEAFNETIKIFEEQGQTQEKCSKEYLERFRREGNEKEMQRILLNSERLKSRIAEIHESRTKLEQDLRAQASDNREIDKRMNSLKPDLMQLRKIRDQYLVWLTQKGARQRKINEWLGIKNETEDQYSLMEDEDALPHHEERTWYVGKINRTQAEEMLSGKRDGTFLIRESSQRGCYACSVVVDGDTKHCVIYRTATGFGFAEPYNLYGSLKELVLHYQHASLVQHNDALTVTLAHPVRAPGPGPPSAAR
notes: No tag (pFastBac1); also called p85-icSH2; source: Sf9 cells, recombinant baculoviruses, coinfected with p110β; complex purified (HisTrap, Q-Sepharose, heparin, gel filtration)
**Q.** Does B1 bind?
**A.** binds

From PMC3670040, “Structure of Lipid Kinase p110β/p85β Elucidates an Unusual SH2-Domain-Mediated Inhibitory Mechanism” (Molecular Cell, 2011)
